± gives the uncertainty stated by the source.
Test: protein stability index of a GFP-peptide fusion (yeast GPS) (PSI 1-4); higher = more stable; sorted into four equal gates, so the index is relative within each strain
In short: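 Yeast carrying a pooled library were grown to mid-log phase in leucine-free medium. Each library plasmid expresses Cherry and has a tiled 17-residue yeast protein peptide fused downstream of GFP. Cells were sorted into four equal gates by GFP/Cherry ratio, and plasmids from each gate were PCR-amplified, Illumina-sequenced and assigned to strains by barcode. Summing, across gates, the read frequency times the gate number gave each peptide's protein stability index.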

Sequence	protein stability index (doa10∆)	protein stability index (pdr5∆)	protein stability index (san1∆)	protein stability index (ubr1∆)
TSFDRTKKTITPMGGFV [RPL3]	3.04 ± 0.12	3.03 ± 0.12	2.79 ± 0.089	3.21 ± 0.24
TSGTSSEQFNVWDWNNW [GAL11]	2.56 ± 0.086	3.11 ± 0.11	2.71 ± 0.073	2.73 ± 0.096
TSIGIKCNDGVVFAVEK [PRE10]			2.61 ± 0.29	
TSILELGQLYVTMGAKD [RPN6]	3.23 ± 0.11	2.85 ± 0.083	2.96 ± 0.071	2.96 ± 0.059
TSNDASNKKETKKKRKP [ITC1]	3.08 ± 0.089	3.25 ± 0.075	3.21 ± 0.088	3.29 ± 0.074
TSNGLKKNPNWLEEYHP [FAS1]	3.3 ± 0.17	3.22 ± 0.15	3.48 ± 0.098	3.38 ± 0.11
TSNNETNNGNDDNETEN [GRR1]	3.03 ± 0.074	3.28 ± 0.077	3.14 ± 0.053	2.92 ± 0.055
TSQKMKKMVYVLDSMTK [SRP54]	2.79 ± 0.11	3.12 ± 0.11	3.13 ± 0.21	2.96 ± 0.078
TSRVTGILLLDSLIQLA [YJL039C/NUP192]	1.85 ± 0.062	1.77 ± 0.056	1.59 ± 0.094	1.95 ± 0.048
TSSIFQESFNSVQNLDQ [NUT1]	3.16 ± 0.086	2.64 ± 0.057	2.98 ± 0.048	3.14 ± 0.054
TSSRGRDHKSYSQSPPR [SMC4]	2.65 ± 0.046	2.81 ± 0.056	2.59 ± 0.088	2.83 ± 0.038
TSTDFPGFSKDAENEWN [RPC40]		3.1 ± 0.22		
TSTDGKKRSKARKETYS [HTB1]	3.07 ± 0.24	3.11 ± 0.14		
TSTGTTIVGVKFNNGVV [PUP1]	2.55 ± 0.12	3.14 ± 0.11	3.01 ± 0.14	2.71 ± 0.095
TSVDGKKRSKVRKETYS [HTB2]	3.04 ± 0.087	3.19 ± 0.14	3.15 ± 0.18	3.31 ± 0.067
TSVIQDLSEKILNDIET [BRR2]	2.89 ± 0.1	3.3 ± 0.11	3.21 ± 0.061	3.09 ± 0.076
TTDKNTTDDKSMDTKKK [BRN1]	3.51 ± 0.1	3.51 ± 0.084	3.61 ± 0.039	3.33 ± 0.053
TTDMISVLYQLSTSAFM [YML031W/NDC1]	1.42 ± 0.095	1.64 ± 0.14	1.75 ± 0.24	1.14 ± 0.11
TTNNNNTNNNNTNNNNN [SWI1]	3.39 ± 0.087	3.5 ± 0.082	3.43 ± 0.06	3.42 ± 0.079
TTPKKIKHKHKKVKLAV [RPS31]	2.19 ± 0.052	1.99 ± 0.1	1.34 ± 0.2	1.91 ± 0.059

Sequence	protein stability index (doa10∆)	protein stability index (pdr5∆)	protein stability index (san1∆)	protein stability index (ubr1∆)
TTPVKLGPGIYCDPNTQ [RRP40]	2.65 ± 0.077	2.2 ± 0.076	2.74 ± 0.06	2.35 ± 0.05
TTQGGLTSVTRHGFNRS [RPO21]	3.14 ± 0.088	3.04 ± 0.08	3.15 ± 0.077	3.26 ± 0.071
TTTTANINEVKKASDLV [NUT1]	3.01 ± 0.06	3.07 ± 0.067	2.84 ± 0.067	2.62 ± 0.074
TTYTYQQPNPLQDLISV [ROX3]	1.67 ± 0.059	1.81 ± 0.069	1.7 ± 0.11	2.08 ± 0.1
TVASSKVGYTLPSHIIS [RPL4A]	3.19 ± 0.076	3.02 ± 0.052	3.09 ± 0.035	3.25 ± 0.043
TVEALDFREKALYIAMM [RET1]	2.73 ± 0.1	3.03 ± 0.096	3.29 ± 0.076	2.59 ± 0.082
TVKLYLPEILNVLCVNI [ECM29]	1.46 ± 0.047	1.49 ± 0.045	1.5 ± 0.074	1.42 ± 0.045
TVKTNDELMVIYISNLV [RPN8]	1.66 ± 0.12	1.5 ± 0.063	1.51 ± 0.15	1.29 ± 0.078
TVLCTPTGGKAKLSEGT [RPS27B]	3.25 ± 0.11	3.18 ± 0.079	3.15 ± 0.045	3.15 ± 0.1
TVNGQARDLATMTYEEV [FAS1]	2.96 ± 0.08	3.15 ± 0.056	3.03 ± 0.065	2.95 ± 0.045
TVPEYLKTADNRDRSFQ [PGD1]	3.08 ± 0.084	3.07 ± 0.079	3.3 ± 0.038	3.07 ± 0.049
TVPNINFSGLNGGITNT [YOR098C/NUP1]	3.45 ± 0.15	3.35 ± 0.22	3.74 ± 0.11	3.67 ± 0.12
TVQENELLKSSLQKAGS [AAR2]	3.17 ± 0.11	3.21 ± 0.088	3.01 ± 0.073	3.13 ± 0.084
TVRVDKASTYGELVLDI [SNF12]	2.38 ± 0.06	2.38 ± 0.053	2.02 ± 0.086	1.81 ± 0.044
TVTSLDVVYALKRQGRT [HHF1]	3.55 ± 0.18	3.26 ± 0.13	3.18 ± 0.086	2.31 ± 0.076
TVVGNASFGKNLQIRQL [DSN1]		2.7 ± 0.17		2.97 ± 0.2
TVVTVVSTAKFSGKYLK [RPL22A]	3.18 ± 0.12	3.13 ± 0.083	3.38 ± 0.17	2.96 ± 0.065
TWIQQFKSTMLQVSEKD [ARP7]	1.89 ± 0.065	1.86 ± 0.066	1.27 ± 0.14	1.73 ± 0.053
TWSLILNECLKTIQINN [YML031W/NDC1]	1.88 ± 0.057	1.62 ± 0.058	1.3 ± 0.1	1.86 ± 0.042
TWTNSKIFIKDPKFVNS [YML103C/NUP188]	2.27 ± 0.11	2.05 ± 0.06	1.71 ± 0.11	1.73 ± 0.062
